According to patent US11155602B2, “Polypeptides targeting HIV fusion” (priority 2015, dated 2021):
Changes are numbered by the printed parent chain.

B1: 257 (protein)
chain: MGHHHHHHGGSVSDVPRDLEVVAATPTSLLISWEYKVHPYRYYRITYGETGGNSPVQEFTVPSVLSTATISGLKPGVDYTITVYAVTNGDDSAPISINYRTEID
modifications: Adnectin
B2: 258 (protein)
chain: B1 chain with T67S, S71R, N88Y
modifications: Adnectin
B3: 259 (protein)
chain: B1 chain with T69K, N88Y
modifications: Adnectin
B4: 260 (protein)
chain: B1 chain with T60R, N88Y
modifications: Adnectin
B5: 128 (protein)
chain: MGHHHHHHGGVSDVPRDLEVVAATPTSLLISWEYKVHPYRYYRITYGETGGNSPVQEFTVPSVLSSAEISGLKPGVDYTITVYAVTYGIDSSPISINYRTPGG
modifications: Adnectin
B6: 261 (protein)
chain: B1 chain with H38A, Y40W, N88Y
modifications: Adnectin
B7: 262 (protein)
chain: B1 chain with H38D, P39G, Y40W, N88Y
modifications: Adnectin
B8: 263 (protein)
chain: B1 chain with H38D, P39T, Y40W, N88Y
modifications: Adnectin
B9: 265 (protein)
chain: B1 chain with N88Y, D90A
modifications: Adnectin
B10: 266 (protein)
chain: B1 chain with N88R
modifications: Adnectin
B11: 267 (protein)
chain: B1 chain with E58D, S71R, N88Y
modifications: Adnectin
B12: 269 (protein)
chain: B1 chain with E58A, N88Y
modifications: Adnectin
B13: 270 (protein)
chain: B1 chain with H38A, N88Y
modifications: Adnectin
B14: 129 (protein)
chain: MGVSDVPRDLEVVAATPTSLLISWEYKVHPYRYYRITYGETGGNSPVQEFTVPSVLSSAEISGLKPGVDYTITVYAVTYGIDSPPISINYRTEIDKPSQHHHHHH
modifications: Adnectin
B15: 271 (protein)
chain: B1 chain with H38D, P39G, N88Y
modifications: Adnectin
B16: 272 (protein)
chain: B1 chain with H38D, P39T, N88Y
modifications: Adnectin
B17: 273 (protein)
chain: B1 chain with K36E, N88Y
modifications: Adnectin
B18: 274 (protein)
chain: B1 chain with K36R, N88Y
modifications: Adnectin
B19: 275 (protein)
chain: B1 chain with E58S, N88Y, D90A
modifications: Adnectin
B20: 276 (protein)
chain: B1 chain with S71R, N88Y
modifications: Adnectin
B21: 277 (protein)
chain: B1 chain with E58D, N88Y
modifications: Adnectin
B22: 278 (protein)
chain: B1 chain with H38A, P39R, Y40W, N88Y
modifications: Adnectin
B23: 279 (protein)
chain: B1 chain with H38D, P39H, Y40Q, N88Y
modifications: Adnectin
B24: 280 (protein)
chain: B1 chain with H38D, P39Y, Y40G, N88Y
modifications: Adnectin
B25: 130 (protein)
chain: B1 chain with K36N, P39Y, Y40D, N88D, D90V, D91H, A93S
modifications: Adnectin
B26: 281 (protein)
chain: B1 chain with E34K, K36G, N88Y
modifications: Adnectin
B27: 282 (protein)
chain: B1 chain with K36S, N88Y
modifications: Adnectin
B28: 283 (protein)
chain: B1 chain with N88D
modifications: Adnectin
B29: 284 (protein)
chain: B1 chain with N88S
modifications: Adnectin
B30: 285 (protein)
chain: B1 chain with T67S, I70L, S71R, N88Y
modifications: Adnectin
B31: 286 (protein)
chain: B1 chain with H38A, P39A, Y40W, N88Y
modifications: Adnectin
B32: 287 (protein)
chain: B1 chain with H38A, P39T, Y40W, N88Y
modifications: Adnectin
B33: 288 (protein)
chain: B1 chain with P26T, H38D, P39Y, Y40H, N88Y
modifications: Adnectin
B34: 115 (protein)
chain: B14 chain with H29N, P30N, S58T, E60T, I81V, D82H, P84S
modifications: Adnectin
B35: 289 (protein)
chain: B1 chain with K36G, N88Y
modifications: Adnectin
B36: 131 (protein)
chain: B1 chain with N88Y, D91L
modifications: Adnectin
B37: 291 (protein)
chain: B1 chain with N88G
modifications: Adnectin
B38: 292 (protein)
chain: B1 chain with S71H, N88Y
modifications: Adnectin
B39: 293 (protein)
chain: B1 chain with I70L, S71R, N88Y
modifications: Adnectin
B40: 294 (protein)
chain: B1 chain with T67S, N88Y
modifications: Adnectin
B41: 295 (protein)
chain: B1 chain with H38A, P39A, N88Y
modifications: Adnectin
B42: 296 (protein)
chain: B1 chain with H38A, P39T, N88Y
modifications: Adnectin
B43: 297 (protein)
chain: B1 chain with H38D, Y40W, N88Y
modifications: Adnectin
B44: 298 (protein)
chain: B1 chain with H38D, P39Y, Y40Q, N88Y
modifications: Adnectin
B45: 299 (protein)
chain: B1 chain with E34K, N88Y
modifications: Adnectin
B46: 132 (protein)
chain: MGHHHHHHGGSVSDVPRDLEVVAATPTSLLISWDAPAVTVEEYYIGYYVEFEPSSYQWFTVPGSKSTATISGLKPGVEYSIYVNAVTGMGMQPEMSLPISINYRTEGS
modifications: Adnectin
B47: 301 (protein)
chain: MGHHHHHHGGSVSDVPRDLEVVAATPTSLLISWEYKVHPYRYYRITYGETGGNSPVQEFTVPSVLSTATISGLKPGVDYTITVYAVTHGDDFAPISINYRTEMLI
modifications: Adnectin
B48: 302 (protein)
chain: B1 chain with T67S, S71N, N88Y
modifications: Adnectin
B49: 303 (protein)
chain: B1 chain with T60K, N88Y
modifications: Adnectin
B50: 304 (protein)
chain: B1 chain with H38A, P39H, Y40D, N88Y
modifications: Adnectin
B51: 305 (protein)
chain: B1 chain with H38D, N88Y
modifications: Adnectin

System: NL-Rluc virus
Test: Combinectin potency assay: antiviral EC50, NL-Rluc virus in MT-2 cells, luciferase readout
Format: cell-based, HIV-1
Conditions: Anti-N17 Adnectin, Table 3
Outline: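 MT-2 cells infected with replication-competent NL-Rluc HIV (nef replaced by Renilla luciferase) at MOI 0.01 for 1 h, then added to threefold-diluted peptides (11 concentrations, triplicate). After 4–5 days, luciferase measured by Dual Luciferase; EC50 relative to no-peptide wells.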

| Molecule | EC50 |
| --- | --- |
| B1 | > 1 µM |
| B2 | 0.195 µM |
| B3 | 0.135 µM |
| B4 | 0.188 µM |
| B5 | 0.018 µM |
| B6 | > 1 µM |
| B7 | > 1 µM |
| B8 | > 1 µM |
| B9 | 0.063 µM |
| B10 | > 1 µM |
| B11 | > 1 µM |
| B12 | 0.184 µM |
| B13 | > 1 µM |
| B14 | 0.011 µM |
| B15 | > 1 µM |
| B16 | > 1 µM |
| B17 | > 1 µM |
| B18 | 0.115 µM |
| B19 | 0.18 µM |
| B20 | 0.016 µM |
| B21 | > 1 µM |
| B22 | > 1 µM |
| B23 | > 1 µM |
| B24 | > 1 µM |
| B25 | 0.042 µM |
| B26 | > 1 µM |

| Molecule | EC50 |
| --- | --- |
| B27 | 0.056 µM |
| B28 | > 1 µM |
| B29 | > 1 µM |
| B30 | 0.397 µM |
| B31 | > 1 µM |
| B32 | > 1 µM |
| B33 | > 1 µM |
| B34 | 0.13 µM |
| B35 | > 1 µM |
| B36 | 0.005 µM |
| B37 | > 1 µM |
| B38 | 0.052 µM |
| B39 | > 1 µM |
| B40 | 0.101 µM |
| B41 | > 1 µM |
| B42 | > 1 µM |
| B43 | 0.03 µM |
| B44 | > 1 µM |
| B45 | > 1 µM |
| B46 | 0.005 µM |
| B47 | > 1 µM |
| B48 | 0.004 µM |
| B49 | 0.109 µM |
| B50 | > 1 µM |
| B51 | 0.083 µM |
